In the supplement of paper PMC9170038:

Tested on: MS2 coat protein
Experiment: apparent KD of MS2 coat protein; designed switch direction (-1 OFF switch, 1 ON switch): -1; higher = weaker reporter binding
How it was run: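 Designed RNA switches with common flanks were made on Illumina chips by stalled E. coli RNA polymerase. Titration with SNAP-549-labelled MS2 coat protein doubled from 0.7 or 1.5 nM up to 3 µM. Apparent KD is each design's median over clusters after curve-fitting normalised fluorescence.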

[1] = Eterna round: R95, input ligand: FMN 200 uM
[2] = Eterna round: R95, input ligand: microRNA oligo, concentration not stated
[3] = Eterna round: R95, input ligand: none
[4] = input ligand: microRNA oligo, concentration not stated

Sequence	apparent KD of MS2 coat protein (input ligand: FMN 200 uM)	apparent KD of MS2 coat protein (input ligand: none)	apparent KD of MS2 coat protein [1]	apparent KD of MS2 coat protein [2]	apparent KD of MS2 coat protein [3]	apparent KD of MS2 coat protein [4]
GAAAACGCAGAGGAUAUUUCAGAUCAAAGCUGCAAAGAAGGCUGCACAUGAGGAUCACCCAUGUGGUCUUCAAG [Mat - Exclusion 6 - JL Mod - D9] (Eterna round: R97, puzzle: Exclusion 6)	152 nM	29 nM				
GAAAACGCUGAGGAUAUUUCUGAUCAAAGCAGCAAAGAAGGCAGCACAUGAGGAUCACCCAUGUGGUCUUCAAU [Mat - Exclusion 6 - JL Mod - D11] (Eterna round: R97, puzzle: Exclusion 6)	445 nM	33 nM				
GAAAAGAGAGGAUAUACUUGAGGAUCACCCAAGUAGGCGGUAACCGCCACGGGCCAGAGUAGAAGGCUCAAAAC [Beceanlave] (Eterna round: R97, puzzle: Exclusion 3)	141 nM	32.2 nM				
GAAAAGCGAGGAUAUACAUGAGGAUCACCCAUGUAGCAAAAGCGUGCGGCGGUCGGAGGUAGAAGGCGCACAAC [Zamara] (puzzle: Exclusion 3)			81.2 nM	51.8 nM	100 nM	
GAAAAGGCAGGAUAUGCAAUGUUUGUCCCAUCUCUCCUAAGACAUGAGGAUCACCCAUGUAGAAGGGCCAGGAA [Eternabot (L2) Solution 62] (Eterna round: R97, puzzle: Exclusion 2)	33.7 nM	26.5 nM				
GAAAAGGUAGGAUAUACGAAAAAAAAGGGUAGAAAAAAAGCACAUGAGGAUCACCCAUGUAGAAGGACCAAAAG [salish99_ex2_r3_018] (Eterna round: R96, puzzle: Exclusion 2)						29.6 nM
GAAAAGGUAGGAUAUACGAAAAAAAAGGGUAGAAAAAAAGCACAUGAGGAUCACCCAUGUAGAAGGACCAAAAG [salish99_ex2_r3_018] (puzzle: Exclusion 2)			137 nM	32.5 nM	33.5 nM	
GAAAAGGUAGGAUAUACGAAAAAAAAGGGUAGAAAAAGAACACAUGAGGAUCACCCAUGUAGAAGGACCAAAAG [salish99_ex2_r3_020] (puzzle: Exclusion 2)			72.8 nM	20.9 nM	20.3 nM	
GAAAAGGUAGGAUAUACGAAAAAAAAGGGUAGAAAAUAAACACAUGAGGAUCACCCAUGUAGAAGGACCAAAAG [salish99_ex2_r3_075] (puzzle: Exclusion 2)			92 nM	25.3 nM	25.7 nM	
GAAAAGGUAGGAUAUACGAUAAGAAAGGGUAGAGAAGAAACACAUGAGGAUCACCCAUGUAGAAGGACCAAAAG [salish99_ex2_r3_100] (puzzle: Exclusion 2)			146 nM	23.6 nM	33.2 nM	
GAAAAGGUAGGAUAUACGAUAAGAAAGGGUAGAGAAUAAACACAUGAGGAUCACCCAUGUAGAAGGACCAAAAG [salish99_ex2_r3_101] (puzzle: Exclusion 2)			148 nM	30 nM	26 nM	
GAAAAGUAAGGAUAUGUCUCCAGUGAGGAAACUCACUGGAGACAGAAGGUACAUGAGGAUCACCCAUGUUCCUC [ExDelusion 5 - Jieux - Exclusion 4] (Eterna round: R97, puzzle: Exclusion 4)	289 nM	42.7 nM				
GAAAAGUAAGGAUAUUCACACAGUGAGGAAACUCACUGUGUGGAGAAGGUACAUGAGGAUCACCCAUGUUUCUC [ExDelusion 1 - Jieux - Exclusion 4] (Eterna round: R97, puzzle: Exclusion 4)	229 nM	30.3 nM				
GAAAAGUGAGGAUAUGGUAAUGUAAGUAUGUAGUAUGUAAUCCAGAAGGCACAUGAGGAUCACCCAUGUAAAAG [Mat - Exclusion 4 - D102] (puzzle: Exclusion 4)				24.4 nM		
GAAAAUGUAGAGGAUAUUUCAGAUCAAGACUGCAAAGAAGGCUGCACAUGAGGAUCACCCAUGUGGUCAACAAA [Mod of Quesina 15 - Jieux - Exclusion 6] (Eterna round: R97, puzzle: Exclusion 6)	79.1 nM	22.3 nM				
GAAAGGGCAGGAUAUGCAGAGAGAGAGAGAGAGAGAAAAAAACAUGAGGAUCACCCAUGUAGAAGGGCCGAAAG [salish99-ex2-06] (Eterna round: R96, puzzle: Exclusion 2)	31 nM	34.2 nM				27.8 nM
GAACCGCGAGGAUAUACAGUCGAGUCCAUUACGUGUCUCGGACUUGAGGAUCACCCAAGUAGAAGGCGUCUCAG [salish99_ex2_r4_634] (Eterna round: R97, puzzle: Exclusion 2)	96.3 nM	188 nM				
GAACUGAAGCAUAGCUUUAGUCGUACAUGAGGAUCACCCAUGUAGGAUAUGGUAGGCAUAGCUUACUAGAAGGAUAGAGUGAUC [Mat - Exclusion NG 3 - Mod of JL - D73] (Eterna round: R96, puzzle: Exclusion NG 3)	595 nM	243 nM				411 nM
GAACUGAGGCAAAGCUUUAGUCGUACAUGAGGAUCACCCAUGUAGGAUAUGGUAGGCAAAGCUUACCAGAAGGACAGAGUGAUC [Mat - Exclusion NG 3 - Mod of JL - D60] (Eterna round: R96, puzzle: Exclusion NG 3)	498 nM	257 nM				260 nM
GAAGAAGAGAGAAUAGAAAACAUGAGGAUCACCCAUGUGAGAAGAUGAGGGUGUAAUAGGCUUUUGGCUCGUCUUAU (puzzle: Sensor v3, turn-off variant 1)			37.9 nM	89.7 nM	47.2 nM	
GAAGAGACAGGAUAUACAUGAGGAUCACCCAUGUGAGUAAGGUAGAGGCGGAGUAGAUGUAGAAGGGUCAAAGA [JR_Exclu3_Sub015] (puzzle: Exclusion 3)			80.5 nM	40.5 nM	42.8 nM	
GAAGAGGUAGGAUAUACGAAAAAAAAGGGUAGAAAAAAAACACAUGAGGAUCACCCAUGUAGAAGGACCAAAAG [salish99_ex2_r3_034] (puzzle: Exclusion 2)			102 nM	36 nM	23.1 nM	
GAAGCACAUGAGGAUCACCCAUGUAAGGAUAUACGUCUGGUCCGGCCGGACCAGUACCGUAGAAGGUACGUAAA [Excls-Ia] (puzzle: Exclusion 1)				18.1 nM		
GAAGUAAAUGCAGGAUAUACCCACACAUGAGGAUCACCCAUGUAGUCUACUACGGUGUUCUCACGGUAGAAGGGCACAGCCGGA [Eternabot solution 31] (Eterna round: R96, puzzle: Exclusion NG 2)	377 nM	256 nM				267 nM
GAAUAACAAGCGAGAUCCUACAUGAGGAUCACCCAUGUGCUCGUCUUAUAAAGUACUAUCACGAAAGUGAUAGUACA [Mat - Sensor v3 - turn-off var 1 - Eli Mod - D62] (puzzle: Sensor v3, turn-off variant 1)			16.2 nM	200 nM	17.5 nM	
GAAUAGGCAGGAUAUACAUGAGGAUCACCCAUGUGCCGGCGAUAGGUACGAUCGAAAGGUAGAAGGGCCUAAAC [ChP 13.04.2015 #8] (puzzle: Exclusion 3)			30.7 nM	140 nM	127 nM	
GAAUAGUGAGGAUAUGCAAUGAAGGUAGUACGAUAUGUCUGACAUGAGGAUCACCCAUGUAGAAGGCACAGAUC [EX2 #12] (Eterna round: R97, puzzle: Exclusion 2)	16.1 nM	22 nM				
GAAUGAGAGCAGGAUAUCUUAUAAAUAUAUGAAAGAGAAGGGCUCACAUGAGGAUCACCCAUGUGGUCCUAGAU [jl-ex6-4.75 jandersonlee mod] (Eterna round: R97, puzzle: Exclusion 6)	443 nM	42.9 nM				
GACACGGAUGUCAGGAUAUGCAAAUGGCAUCGUUCGCAGAAGGGACAUGAGGAUCACCCAUGUAAAAGUGGACC [Onsorelama] (Eterna round: R97, puzzle: Brourd's mod of Exclusion 4)	109 nM	114 nM				
GACCCUGCCUAGGAUAUGCAUCUGUCAGUCAGGGCAGAAGGAGGCACAUGAGGAUCACCCAUGUGACCCGGCGU [EX6 C.3] (Eterna round: R97, puzzle: Exclusion 6)	14.6 nM	14.5 nM				
